The values below come from publication PMC6240786.

For assay [1], the target named is Streptomyces clavuligerus cucumene synthase, wild-type (Streptomyces clavuligerus). The assay can be described thus: crystal structure.
The target of assay [2] is T181N cucumene synthase (Streptomyces clavuligerus). The assay can be described thus: crystal structure.

As to “Streptomyces clavuligerus cucumene synthase, wild-type (enzyme)”, the stoichiometry N in assay [1] was 2. In assay [2], T181N cucumene synthase (enzyme) registered a stoichiometry N of 2.

Usually stoichiometry N stands for the number of molecules, sites or subunits per partner or assembly.
